From patent US20250197482A1 (UNITED STATES OF AMERICA AS REPRESENTED BY THE SECRETARY …, published 2025)

B1: CAP256V2LS-10E8-3 (bispecific antibody)
heavy chain: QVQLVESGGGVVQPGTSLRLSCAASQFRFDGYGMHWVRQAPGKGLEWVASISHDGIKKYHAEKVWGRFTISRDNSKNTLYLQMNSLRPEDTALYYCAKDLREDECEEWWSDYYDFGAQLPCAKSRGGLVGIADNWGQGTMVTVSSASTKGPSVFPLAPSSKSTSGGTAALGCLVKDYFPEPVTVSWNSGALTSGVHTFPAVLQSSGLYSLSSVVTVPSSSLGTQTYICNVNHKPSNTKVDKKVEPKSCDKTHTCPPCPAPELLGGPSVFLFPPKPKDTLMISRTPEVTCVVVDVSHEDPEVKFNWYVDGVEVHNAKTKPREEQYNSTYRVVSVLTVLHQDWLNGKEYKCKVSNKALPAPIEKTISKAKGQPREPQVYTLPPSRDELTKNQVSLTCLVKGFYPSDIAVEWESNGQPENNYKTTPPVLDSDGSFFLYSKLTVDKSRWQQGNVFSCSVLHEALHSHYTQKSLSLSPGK
light chain (10E8v4 scFv, linker, CAP256V2LS LC): EVRLVESGGGLVKPGGSLRLSCSASGFDFDNAWMTWVRQPPGKGLEWVGRITGPGEGWSVDYAESVKGRFTISRDNTKNTLYLEMNNVRTEDTGYYFCARTGKYYDFWSGYPPGEEYFQDWGQGTLVIVSSGGGGSGGGGSGGGGSSELTQDPAVSVALKQTVTITCRGDSLRSHYASWYQKKPGQAPVLLFYGKNNRPSGIPDRFSGSASGNRASLTITGAQAEDEADYYCSSRDKSGSRLSVFGGGTKLTVGGSGGGGSGGGGSGGQSVLTQPPSVSAAPGQKVTISCSGNTSNIGNNFVSWYQQRPGRAPQLLIYETDKRPSGIPDRFSASKSGTSGTLAITGLQTGDEADYYCATWAASLSSARVFGTGTQVIVLGQPKVNPTVTLFPPSSEELQANKATLVCLISDFYPGAVTVAWKADSSPVKAGVETTTPSKQSNNKYAASSYLSLTPEQWKSHRSYSCQVTHEGSTVEKTVAPTECS
B2: CAP256V2LS-10E8-2 (bispecific antibody)
heavy chain: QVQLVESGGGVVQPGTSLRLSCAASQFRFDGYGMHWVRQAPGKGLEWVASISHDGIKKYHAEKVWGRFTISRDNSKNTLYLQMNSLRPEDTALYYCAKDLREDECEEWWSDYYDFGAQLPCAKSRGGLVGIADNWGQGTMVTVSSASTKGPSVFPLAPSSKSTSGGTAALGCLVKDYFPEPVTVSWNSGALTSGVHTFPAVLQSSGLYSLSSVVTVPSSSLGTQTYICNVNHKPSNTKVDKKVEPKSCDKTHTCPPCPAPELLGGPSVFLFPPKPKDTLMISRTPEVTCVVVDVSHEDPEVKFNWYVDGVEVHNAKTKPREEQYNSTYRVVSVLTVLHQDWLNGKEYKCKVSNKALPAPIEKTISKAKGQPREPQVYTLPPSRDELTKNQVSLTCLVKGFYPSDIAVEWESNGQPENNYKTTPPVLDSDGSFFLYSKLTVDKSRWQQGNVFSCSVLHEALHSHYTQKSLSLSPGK
light chain (10E8v4 scFv, linker, CAP256V2LS LC): EVRLVESGGGLVKPGGSLRLSCSASGFDFDNAWMTWVRQPPGKGLEWVGRITGPGEGWSVDYAESVKGRFTISRDNTKNTLYLEMNNVRTEDTGYYFCARTGKYYDFWSGYPPGEEYFQDWGQGTLVIVSSGGGGSGGGGSGGGGSSELTQDPAVSVALKQTVTITCRGDSLRSHYASWYQKKPGQAPVLLFYGKNNRPSGIPDRFSGSASGNRASLTITGAQAEDEADYYCSSRDKSGSRLSVFGGGTKLTVGGSGGGGSGGQSVLTQPPSVSAAPGQKVTISCSGNTSNIGNNFVSWYQQRPGRAPQLLIYETDKRPSGIPDRFSASKSGTSGTLAITGLQTGDEADYYCATWAASLSSARVFGTGTQVIVLGQPKVNPTVTLFPPSSEELQANKATLVCLISDFYPGAVTVAWKADSSPVKAGVETTTPSKQSNNKYAASSYLSLTPEQWKSHRSYSCQVTHEGSTVEKTVAPTECS
B3: CAP256V2LS-J3-2 (bispecific antibody)
heavy: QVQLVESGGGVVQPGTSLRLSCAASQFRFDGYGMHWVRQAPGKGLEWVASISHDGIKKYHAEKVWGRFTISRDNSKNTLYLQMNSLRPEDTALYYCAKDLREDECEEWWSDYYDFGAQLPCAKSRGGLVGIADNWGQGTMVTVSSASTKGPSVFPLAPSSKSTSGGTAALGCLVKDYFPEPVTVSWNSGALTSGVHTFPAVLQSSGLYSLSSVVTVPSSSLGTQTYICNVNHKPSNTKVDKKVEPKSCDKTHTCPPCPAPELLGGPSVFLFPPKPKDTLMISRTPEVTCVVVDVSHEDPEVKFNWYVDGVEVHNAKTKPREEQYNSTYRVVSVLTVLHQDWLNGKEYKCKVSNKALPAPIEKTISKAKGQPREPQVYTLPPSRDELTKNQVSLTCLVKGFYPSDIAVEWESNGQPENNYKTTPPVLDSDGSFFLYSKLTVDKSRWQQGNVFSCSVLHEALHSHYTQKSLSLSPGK
light: EVQLVESGGGLVQAGGFLRLSCELRGSIFNQYAMAWFRQAPGKEREFVAGMGAVPHYGEFVKGRFTISRDNAKSTVYLQMSSLKPEDTAIYFCARSKSTYISYNSNGYDYWGRGTQVTVSSGGSGGGGSGGQSVLTQPPSVSAAPGQKVTISCSGNTSNIGNNFVSWYQQRPGRAPQLLIYETDKRPSGIPDRFSASKSGTSGTLAITGLQTGDEADYYCATWAASLSSARVFGTGTQVIVLGQPKVNPTVTLFPPSSEELQANKATLVCLISDFYPGAVTVAWKADSSPVKAGVETTTPSKQSNNKYAASSYLSLTPEQWKSHRSYSCQVTHEGSTVEKTVAPTECS
B4: CAP256V2LS-10E8-1 (bispecific antibody)
heavy chain: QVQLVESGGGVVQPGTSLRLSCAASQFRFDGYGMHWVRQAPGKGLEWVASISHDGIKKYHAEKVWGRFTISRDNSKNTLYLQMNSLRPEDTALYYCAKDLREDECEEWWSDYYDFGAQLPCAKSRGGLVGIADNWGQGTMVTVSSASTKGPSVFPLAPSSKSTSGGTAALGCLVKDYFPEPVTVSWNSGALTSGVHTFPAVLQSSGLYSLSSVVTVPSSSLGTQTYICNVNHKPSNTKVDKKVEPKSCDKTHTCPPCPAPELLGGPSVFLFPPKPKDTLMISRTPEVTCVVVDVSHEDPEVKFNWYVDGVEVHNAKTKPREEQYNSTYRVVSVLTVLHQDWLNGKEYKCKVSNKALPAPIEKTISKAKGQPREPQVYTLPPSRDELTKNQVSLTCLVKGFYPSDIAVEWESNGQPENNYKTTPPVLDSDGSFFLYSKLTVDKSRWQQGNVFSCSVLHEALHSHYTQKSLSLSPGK
light chain (10E8v4 scFv, linker, CAP256V2LS LC): EVRLVESGGGLVKPGGSLRLSCSASGFDFDNAWMTWVRQPPGKGLEWVGRITGPGEGWSVDYAESVKGRFTISRDNTKNTLYLEMNNVRTEDTGYYFCARTGKYYDFWSGYPPGEEYFQDWGQGTLVIVSSGGGGSGGGGSGGGGSSELTQDPAVSVALKQTVTITCRGDSLRSHYASWYQKKPGQAPVLLFYGKNNRPSGIPDRFSGSASGNRASLTITGAQAEDEADYYCSSRDKSGSRLSVFGGGTKLTVGGSGGQSVLTQPPSVSAAPGQKVTISCSGNTSNIGNNFVSWYQQRPGRAPQLLIYETDKRPSGIPDRFSASKSGTSGTLAITGLQTGDEADYYCATWAASLSSARVFGTGTQVIVLGQPKVNPTVTLFPPSSEELQANKATLVCLISDFYPGAVTVAWKADSSPVKAGVETTTPSKQSNNKYAASSYLSLTPEQWKSHRSYSCQVTHEGSTVEKTVAPTECS
B5: CAP256V2LS-J3-3 (bispecific antibody)
heavy: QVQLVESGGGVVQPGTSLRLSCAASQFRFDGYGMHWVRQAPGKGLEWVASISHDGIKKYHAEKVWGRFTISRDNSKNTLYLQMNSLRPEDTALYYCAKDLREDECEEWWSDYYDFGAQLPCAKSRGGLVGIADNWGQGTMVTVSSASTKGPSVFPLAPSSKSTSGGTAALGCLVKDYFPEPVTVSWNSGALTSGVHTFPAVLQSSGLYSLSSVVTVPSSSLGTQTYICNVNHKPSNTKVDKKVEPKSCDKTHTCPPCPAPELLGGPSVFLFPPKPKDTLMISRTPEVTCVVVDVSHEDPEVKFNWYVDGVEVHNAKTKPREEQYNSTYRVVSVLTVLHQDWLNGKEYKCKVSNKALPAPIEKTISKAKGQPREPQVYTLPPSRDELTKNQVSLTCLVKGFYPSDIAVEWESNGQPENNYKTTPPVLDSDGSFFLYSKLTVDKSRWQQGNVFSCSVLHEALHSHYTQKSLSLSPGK
light: EVQLVESGGGLVQAGGFLRLSCELRGSIFNQYAMAWFRQAPGKEREFVAGMGAVPHYGEFVKGRFTISRDNAKSTVYLQMSSLKPEDTAIYFCARSKSTYISYNSNGYDYWGRGTQVTVSSGGSGGGGSGGGGSGGQSVLTQPPSVSAAPGQKVTISCSGNTSNIGNNFVSWYQQRPGRAPQLLIYETDKRPSGIPDRFSASKSGTSGTLAITGLQTGDEADYYCATWAASLSSARVFGTGTQVIVLGQPKVNPTVTLFPPSSEELQANKATLVCLISDFYPGAVTVAWKADSSPVKAGVETTTPSKQSNNKYAASSYLSLTPEQWKSHRSYSCQVTHEGSTVEKTVAPTECS
B6: CAP256V2LS-J3-5 (bispecific antibody)
heavy chain: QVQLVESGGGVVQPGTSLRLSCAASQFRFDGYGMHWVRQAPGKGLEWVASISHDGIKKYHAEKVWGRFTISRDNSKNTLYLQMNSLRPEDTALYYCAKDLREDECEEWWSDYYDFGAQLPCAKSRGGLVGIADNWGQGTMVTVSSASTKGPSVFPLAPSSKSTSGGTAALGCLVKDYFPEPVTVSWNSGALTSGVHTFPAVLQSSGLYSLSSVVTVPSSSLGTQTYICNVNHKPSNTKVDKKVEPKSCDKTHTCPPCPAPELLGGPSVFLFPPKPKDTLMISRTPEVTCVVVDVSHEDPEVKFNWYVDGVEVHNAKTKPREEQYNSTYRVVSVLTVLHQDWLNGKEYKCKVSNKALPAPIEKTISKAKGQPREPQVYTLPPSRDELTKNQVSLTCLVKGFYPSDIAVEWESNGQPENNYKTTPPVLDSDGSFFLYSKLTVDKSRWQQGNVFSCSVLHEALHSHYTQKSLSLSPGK
light chain (J3 VHH, linker, CAP256V2LS LC): EVQLVESGGGLVQAGGFLRLSCELRGSIFNQYAMAWFRQAPGKEREFVAGMGAVPHYGEFVKGRFTISRDNAKSTVYLQMSSLKPEDTAIYFCARSKSTYISYNSNGYDYWGRGTQVTVSSDKTHTGDKTHTQSVLTQPPSVSAAPGQKVTISCSGNTSNIGNNFVSWYQQRPGRAPQLLIYETDKRPSGIPDRFSASKSGTSGTLAITGLQTGDEADYYCATWAASLSSARVFGTGTQVIVLGQPKVNPTVTLFPPSSEELQANKATLVCLISDFYPGAVTVAWKADSSPVKAGVETTTPSKQSNNKYAASSYLSLTPEQWKSHRSYSCQVTHEGSTVEKTVAPTECS
B7: CAP256V2LS-J3-6 (bispecific antibody)
heavy chain: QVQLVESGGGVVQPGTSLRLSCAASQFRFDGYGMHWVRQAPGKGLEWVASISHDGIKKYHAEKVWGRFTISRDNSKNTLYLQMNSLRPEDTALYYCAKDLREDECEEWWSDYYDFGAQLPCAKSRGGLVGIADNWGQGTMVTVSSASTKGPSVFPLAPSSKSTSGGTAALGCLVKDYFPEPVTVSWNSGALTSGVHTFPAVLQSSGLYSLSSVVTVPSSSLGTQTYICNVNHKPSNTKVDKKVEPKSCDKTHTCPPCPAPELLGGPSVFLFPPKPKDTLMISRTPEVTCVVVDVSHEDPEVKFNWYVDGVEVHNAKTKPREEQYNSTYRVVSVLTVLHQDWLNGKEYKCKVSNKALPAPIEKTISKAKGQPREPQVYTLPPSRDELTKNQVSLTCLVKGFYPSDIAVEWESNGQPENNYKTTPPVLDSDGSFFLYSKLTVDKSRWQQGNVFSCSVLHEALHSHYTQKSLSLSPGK
light chain (J3 VHH, linker, CAP256V2LS LC): EVQLVESGGGLVQAGGFLRLSCELRGSIFNQYAMAWFRQAPGKEREFVAGMGAVPHYGEFVKGRFTISRDNAKSTVYLQMSSLKPEDTAIYFCARSKSTYISYNSNGYDYWGRGTQVTVSSDKTHTGDKTHTGDKTHTQSVLTQPPSVSAAPGQKVTISCSGNTSNIGNNFVSWYQQRPGRAPQLLIYETDKRPSGIPDRFSASKSGTSGTLAITGLQTGDEADYYCATWAASLSSARVFGTGTQVIVLGQPKVNPTVTLFPPSSEELQANKATLVCLISDFYPGAVTVAWKADSSPVKAGVETTTPSKQSNNKYAASSYLSLTPEQWKSHRSYSCQVTHEGSTVEKTVAPTECS

Each binder was assayed against CAP256 wk34c80 (HIV-1) (assay: cell-based or functional assay).

First: B1
Second: B2
The “% neutralization, single point, Env-pseudotyped virus on TZM-bl” value (from here on “% neutralization, single point”) of the first is higher: 99% for the first, 91% for the second.

First: B3
Second: B4
The “% neutralization, single point” value of the first is higher: 100% for the first, 98% for the second.

B5 and B6 are the same in “% neutralization, single point” value: 100% for the first, 100% for the second.

With B7 the “% neutralization, single point” value was 100%.

The binders below were run against T1, HIV-1 Env of strain WITO.33 (Env-pseudotyped virus) (HIV-1) (assay: cell-based or functional assay).

Going from B1 to B2, the “% neutralization, single point” value rises from 21% to 45%.

Compared with B3, B4 is lower in “% neutralization, single point” value: 100% for the first, 14% for the second.

Going from B5 to B6, the “% neutralization, single point” value falls from 89% to 62%.

For B7, the “% neutralization, single point” value was 48%.

Each binder was assayed against HIV-1 Env of strain SC422.8 (Env-pseudotyped virus) (HIV-1) (assay: cell-based or functional assay).

B3 and B5 are the same in “neutralization potency, fold better than that of J3” value: 3 fold for the first, 3 fold for the second.

Target: T1, HIV-1 Env of strain WITO.33 …
Assay: cell-based or functional assay
Remark: another data set of the same source

B3 and B5 are the same in “neutralization potency, fold better than that of J3” value: roughly 10 fold for the first, roughly 10 fold for the second.
